± gives the uncertainty stated by the source.
Test: amyloid nucleation score (Sup35N fusion, yeast selection) (log enrichment); library NNK2; higher = more nucleation; inactive = no reads after selection
In short: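 Peptides of 20 random codons fused to Sup35N were expressed in psi-negative yeast, induced 24 hours with 100 μM copper sulfate, then grown 7 days at 30°C on medium lacking adenine and uracil. Input and output plasmid inserts were Illumina-sequenced. Nucleation score is the DiMSum log enrichment of output over input reads, centred on the mode score of non-aggregating sequences, excluding sequences with under 100 input reads. Random libraries had three technical output replicates.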

Substance	amyloid nucleation score
LVKTVDYAALPRICDVGRGQ	3.96 ± 0.075
LVLFCAFRVTLGFSQTLNSM	-0.003 ± 0.8
LVLRQLVR	inactive
LVLWKLQVCSPLTVLRTPYR	0.889 ± 0.28
LVMFKVTF	6.432 ± 0.04
LVMTHAMFVSLWCGRTVFLL	0.014 ± 0.49
LVNACFCACLRNNSFKCDYY	6.966 ± 0.066
LVPPVLGAHVSNKVDVILHA	-0.199 ± 1.1
LVSYNITFEYHNGKGCGEYG	3.63 ± 0.12
LVTSCLQVEW	0.284 ± 0.28
LVVKGDLFAIYVCPCLCRGS	9.397 ± 0.051
LVVSI	-0.876 ± 0.78
LVVSIIRGYLFPCGDPIFLW	inactive
LVWPTYVGDQAGSCVPGVFP	4.51 ± 0.068
LVYFKRRLPTRLIANRRMNG	-0.845 ± 0.76
LVYRGLESQPAMRMWHTSST	-0.207 ± 0.63
LWAFHLNFVLSAVCLRRKNL	inactive
LWEVLWVFFDLNNVRLTMCN	-0.93 ± 0.78
LWFLYSAVTFTR	-0.856 ± 0.76
LWHGYGRFRVLSVVF	3.53 ± 0.045
LWIYNYVIRLDFICMERILL	inactive
LWPVCALDEGL	0.669 ± 0.62
LWYMMYLRPLWVRPKIDNEV	1.11 ± 0.24
LYAECFYATILNGDECRWRT	0.344 ± 0.31
LYDIWEDGSITLFCYSYQHH	8.969 ± 0.037

Substance	amyloid nucleation score
LYENRQFFCQGFGRWCMKLL	0.45 ± 0.74
LYFLV	6.55 ± 0.085
LYGTE	0.244 ± 0.2
LYHYPS	inactive
LYKAGIGILLTGVILVF	-1.12 ± 0.6
LYLCGWVGRSMGFDARPCHF	3.38 ± 0.098
LYPYAQFCVSVRRLHRLVSR	0.306 ± 0.28
LYRSVGFGIVEFDH	inactive
LYSDMRASDRYWTLSFDCKI	1.88 ± 0.48
LYSLWQKRGRRGSYVSPAGS	2.88 ± 0.13
LYSLYTYVKRYCASRVRHRY	0.688 ± 0.81
LYSRSTSILDERWSTVIILL	2.5 ± 0.23
LYSVGVR	-0.387 ± 1.1
LYSYDLTC	1.78 ± 0.13
LYVVVRLISCYYGAFPSWNR	-0.316 ± 0.26
MAFCCLSVRYTIGRVVAFMY	-0.4 ± 0.64
MAILYVVGWFVP	0.148 ± 0.28
MANSTLRV	0.314 ± 0.39
MASAVNCESCISSGRVRFSG	0.547 ± 0.81
MATSMNQHGVRMVWSSRLGS	4.57 ± 0.051
MCDLDDRKTTLSPWLRSSLG	1.14 ± 0.35
MCGKRGLRGWLKSDDVIIWV	5.19 ± 0.074
MCPDKARGTMVCTERTPRLM	0.793 ± 0.15
MDGVMRTRFFLDSDVFYSSH	3.69 ± 0.046
MDNNVNNRSPFLICRMMDNI	inactive

Substance	amyloid nucleation score
MDPVWVYADFWMF	-0.78 ± 1.1
MDRWGLFMGYCIADHMIMFD	-0.416 ± 0.48
MDTSYMVLCYKSQRRRSGSR	0.776 ± 0.2
MDWSSGSYGSLSSSHAIERF	-0.093 ± 0.79
MELCYVILWYYIFSCGWWRS	inactive
MENLRNMAYSNC	-1.66 ± 0.61
MESINSVSSSNIVHRFRRGV	5.58 ± 0.077
MFDLQVRTWFWAF	3.03 ± 0.11
MFEVWFLESRHFINWGICSS	inactive
MFGGQELCACLDKEGRTESG	5.09 ± 0.08
MFLRRCSSRVDSKNGHSSKD	0.107 ± 0.39
MFMSQIPYQCGVKSNSVISK	-0.357 ± 0.49
MFRVARFSKAYDCTHFVING	0.546 ± 0.8
MFSNQADFDTNLVSLYDKTW	-0.825 ± 0.4
MFVLFWVVNSTDLCGTAPLV	0.205 ± 0.61
MFVQCICRGIHIIVPGSVRS	3.88 ± 0.13
MFYLCLRVVFRLKSWDFCDK	-0.271 ± 0.34
MGFIRINWLNSVLRSPPTHR	5.527 ± 0.044
MGGGNCLVRFKRYEFPFDIP	-1.61 ± 0.54
MGGLNLCLWSSGLMLVGTGR	5.237 ± 0.043
MGHRFLLRRLSFIADLLV	-1.12 ± 1
MGLPSIF	5.89 ± 0.092
MGSFKC	-1.32 ± 0.63
MGVDLPIASLCSNCGEAGLG	0.199 ± 0.43
MHQVFIKEYAEYYRVCERRM	2.05 ± 0.064

Substance	amyloid nucleation score
MHRLRYKATVFGLNNDDMPP	0.841 ± 0.44
MIGKRGVFS	inactive
MIIMQANDP	-0.302 ± 0.76
MIKYYVSHNPRWHSRWCNSQ	0.762 ± 0.43
MISESF	0.403 ± 0.56
MITWCHIVALSNVGTVVSYN	inactive
MIWLHIILMLMLVCRVLSE	0.914 ± 0.46
MIWPCMVP	-0.237 ± 1
MIYSVMFNVNGACTYNCRII	7.478 ± 0.055
MKFKPDLVLFRYVHVKVYLE	-1.01 ± 1.1
MKGACLRGYEVLSMGQSTSY	0.404 ± 0.8
MKKFLGWRYELNCWVLYNSG	-1.16 ± 0.76
MKKWWPVICFGWSQVSFRVE	3.21 ± 0.16
MLALLCVNNWEGCYWYVGSV	6.827 ± 0.063
MLCVFRVLPMLNWY	-0.257 ± 0.48
MLGVSQCVVMVVAGWA	1.4 ± 0.16
MLKQSGDSVAHCLGKTGSQM	0.371 ± 0.35
MLKSHVI	-0.374 ± 0.32
MLLFSLWGNYAGQVPWDRVG	-0.513 ± 0.48
MLRFFCADWCSLGVCFTLGV	-0.137 ± 1.1
MLRHSANMIKMLKHTTTND	0.004 ± 0.45
MLTFF	-0.409 ± 0.76
MLVLSSFNCRLFKINRLR	-0.268 ± 0.45
MLVPFRVESMSGTRTCKVTV	4.96 ± 0.08
MLVRIYLYRKRSYMVRSALM	1.52 ± 0.12

Substance	amyloid nucleation score
MMFILLYKTFCAGEWAGGMY	6.053 ± 0.04
MMGECNFCSIGRH	4.83 ± 0.078
MMHEYAAGGLSSGLFWDMSG	-0.623 ± 0.63
MMIFLGLTSFKFLMSAVNTM	0.628 ± 0.38
MMSSRILGVFDSSSTICVRH	-0.218 ± 0.38
MNACSQGVSQSSDFQL	5.08 ± 0.066
MNFCNHPLMDLMVSDLAWWM	0.112 ± 0.37
MNHISLFFRSEVQVCGVFC	8.609 ± 0.052
MNHWGMLRLGSWYRITYA	-0.367 ± 0.38
MNMFMCFNGHNKRIVVKSKL	0.446 ± 0.42
MNVYYHVGWNGCYSGVWRAE	4.818 ± 0.043
MNYTT	-0.242 ± 0.54
MPLQFDPVWFILNTLLRPHA	-0.228 ± 0.42
MPQSYFLGSRIKRFKKSRLV	0.496 ± 0.37
MQLNNG	0.075 ± 0.21
MRHSRHFVQYGWFDCGQSGS	1.02 ± 0.29
MRRTPFCVWKHIYRM	0.182 ± 1.1
MSFFYDMEEWRMCLRLARYR	3.82 ± 0.07
MSFRSRPGLDDGWMIRWRGR	0.446 ± 0.49
MSFVDEYCGGEVTISEPSMS	-0.545 ± 0.76
MSGICPDQSSLYIEDTSIWL	2.96 ± 0.068
MSICANLVLWWLDL	-0.607 ± 0.63
MSKDTVMPWERIKEVLHCLG	0.342 ± 0.3
MSPYLWYGWLEAGLLGIRTL	0.871 ± 0.34
MSQGSKIRVTWARSGGTRRL	3.08 ± 0.15

Substance	amyloid nucleation score
MSYQSINKKGFVVFGRKLLA	-0.512 ± 0.39
MTALSTVDWRYSAHFSS	inactive
MTCRRCNNAMWSGLLRLKIY	2.97 ± 0.17
MTCSTWMQLVRYTSVICILT	inactive
MTFVHVSNMWDRNEGICGDE	-0.323 ± 0.41
MTIGFNAIYHQFRVTRCLVT	0.545 ± 0.53
MTLIAVDSLSYLWANDNRRG	0.353 ± 0.36
MTRVSQFVVVP	1.69 ± 0.13
MTVLV	1.12 ± 0.26
MVAFNTFSD	inactive
MVFFLLQLATAAVFSF	-0.073 ± 1
MVFKRPHVWFDTTTFEFGMV	0.732 ± 0.43
MVIYHVPQYVRYWQP	0.017 ± 0.63
MVSFGSGGELFFMHTQFSAR	-0.311 ± 0.64
MWLGLTRRMVITSCYN	0.461 ± 0.36
MWSLRYTVGLEDCG	0.897 ± 0.34
MYCYRNFLSDDINRGGALVM	-0.998 ± 0.74
MYFNSRSNYEYAYCWLFIVF	0.492 ± 0.44
MYGTTRLVLWAVIDWFEGVG	-0.718 ± 0.49
MYKGLISLNCVTSGTRSG	-1.07 ± 1.1
MYRVLSIKWDRHLTRVHIAW	inactive
MYWLFR	0.461 ± 0.25
MYYYSSCKNVQKSHPSSRMQ	inactive
NACPVCSRW	0.589 ± 0.38
NAHKTNLVQTLVNRLIELMD	0.223 ± 0.29

Substance	amyloid nucleation score
NALADRRFTISPRIFAYLLL	0.312 ± 0.65
NAPLCFKHKSRL	-0.995 ± 0.44
NAQYGRCSLWCPCPTVWTA	2.24 ± 0.25
NARGHVNV	0.786 ± 0.44
NARLRYGSL	-0.101 ± 0.37
NASPFSHKYHEWFEVEGSSI	0.108 ± 0.65
NATCA	-1.01 ± 0.45
NAYVEIIIWASRDFMYCRHM	-0.262 ± 0.79
NCEPELLAVLSRCFSSIWVS	-1.27 ± 0.78
NCETLCVLVGAQYC	4.13 ± 0.049
NCFFITGGNGYNAVLLKYIC	3.83 ± 0.04
NCGKLHQF	0.403 ± 0.5
NCLVISFKLWHNLMTVGYGD	3.66 ± 0.079
NCMPMEYNDGENAVMCGFNG	0.11 ± 0.27
NCRFFIADVSLYPTWFIFYF	2.82 ± 0.12
NCSSTIDFLFNLIHILKNF	inactive
NCVHRDNWE	inactive
NCYNMVYNCVPSEKAVKTCR	0.264 ± 0.32
NDRILPYSNLWHWERLV	-0.567 ± 1.1

Reference: the supplement of paper PMC12042874
